What all share (assay): cell-based or functional assay
Assay [1] has as its target T1, NF-ATp expressed from an NF-ATp expression plasmid (pREP4-NF-ATp).
T1 sequence (Q60591 1-927, species assumed, looked up): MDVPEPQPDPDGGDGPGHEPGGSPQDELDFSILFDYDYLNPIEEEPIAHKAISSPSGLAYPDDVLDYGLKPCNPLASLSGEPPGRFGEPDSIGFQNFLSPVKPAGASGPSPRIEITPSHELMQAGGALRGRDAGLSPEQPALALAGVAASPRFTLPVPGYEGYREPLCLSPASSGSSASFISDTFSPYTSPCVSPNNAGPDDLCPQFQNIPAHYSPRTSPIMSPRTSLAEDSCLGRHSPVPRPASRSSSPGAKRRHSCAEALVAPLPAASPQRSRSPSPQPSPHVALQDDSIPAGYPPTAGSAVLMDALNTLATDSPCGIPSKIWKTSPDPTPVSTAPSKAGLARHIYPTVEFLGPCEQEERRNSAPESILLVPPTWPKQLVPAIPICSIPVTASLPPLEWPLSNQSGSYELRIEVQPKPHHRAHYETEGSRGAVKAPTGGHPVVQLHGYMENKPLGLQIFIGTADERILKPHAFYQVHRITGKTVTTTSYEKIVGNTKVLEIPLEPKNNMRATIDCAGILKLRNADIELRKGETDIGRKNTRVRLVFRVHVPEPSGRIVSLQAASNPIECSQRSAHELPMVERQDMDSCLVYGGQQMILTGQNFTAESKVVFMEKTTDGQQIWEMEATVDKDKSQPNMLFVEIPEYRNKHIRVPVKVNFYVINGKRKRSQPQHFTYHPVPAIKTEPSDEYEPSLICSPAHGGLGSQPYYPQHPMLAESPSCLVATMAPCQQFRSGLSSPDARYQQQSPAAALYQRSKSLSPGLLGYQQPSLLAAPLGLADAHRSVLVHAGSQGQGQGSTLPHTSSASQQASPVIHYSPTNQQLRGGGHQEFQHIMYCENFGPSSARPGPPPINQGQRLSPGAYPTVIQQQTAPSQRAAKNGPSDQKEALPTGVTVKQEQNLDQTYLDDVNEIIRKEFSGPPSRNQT

The target of assay [2] is T2, NF-AT3 expressed from an expression construct.
T2 sequence (Q14934 1-902, species assumed, looked up): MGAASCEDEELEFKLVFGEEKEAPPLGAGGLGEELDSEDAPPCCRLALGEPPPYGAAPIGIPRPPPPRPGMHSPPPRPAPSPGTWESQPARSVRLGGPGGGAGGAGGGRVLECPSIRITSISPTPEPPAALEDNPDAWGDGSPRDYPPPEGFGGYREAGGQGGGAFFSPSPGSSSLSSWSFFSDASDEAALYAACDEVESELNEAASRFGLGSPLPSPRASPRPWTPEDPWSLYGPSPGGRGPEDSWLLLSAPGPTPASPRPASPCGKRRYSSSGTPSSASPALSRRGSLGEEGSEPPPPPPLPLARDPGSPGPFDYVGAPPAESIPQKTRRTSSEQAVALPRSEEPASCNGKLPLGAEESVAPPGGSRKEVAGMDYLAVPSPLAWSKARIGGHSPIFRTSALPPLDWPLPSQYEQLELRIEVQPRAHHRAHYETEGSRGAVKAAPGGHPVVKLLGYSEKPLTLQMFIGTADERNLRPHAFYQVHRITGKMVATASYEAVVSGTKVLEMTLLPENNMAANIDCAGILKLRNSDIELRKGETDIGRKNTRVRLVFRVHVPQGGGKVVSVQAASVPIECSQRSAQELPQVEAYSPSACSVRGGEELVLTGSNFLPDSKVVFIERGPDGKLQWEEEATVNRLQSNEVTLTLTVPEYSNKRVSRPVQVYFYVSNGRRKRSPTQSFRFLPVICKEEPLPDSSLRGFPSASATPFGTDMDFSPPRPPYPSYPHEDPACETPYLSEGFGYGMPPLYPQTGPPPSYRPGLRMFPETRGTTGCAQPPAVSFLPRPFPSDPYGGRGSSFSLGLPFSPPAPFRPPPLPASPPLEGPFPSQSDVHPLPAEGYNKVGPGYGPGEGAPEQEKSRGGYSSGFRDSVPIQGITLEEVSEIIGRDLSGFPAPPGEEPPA

The target in assay [3] is T1, NF-ATp expressed from an NF-ATp expression plasmid (pREP4-NF-ATp). The source holds these as a separate data set.
The target in assay [4] is T3, NF-AT4 expressed from an expression construct.
T3 sequence (Q12968 2-1075, species assumed, looked up): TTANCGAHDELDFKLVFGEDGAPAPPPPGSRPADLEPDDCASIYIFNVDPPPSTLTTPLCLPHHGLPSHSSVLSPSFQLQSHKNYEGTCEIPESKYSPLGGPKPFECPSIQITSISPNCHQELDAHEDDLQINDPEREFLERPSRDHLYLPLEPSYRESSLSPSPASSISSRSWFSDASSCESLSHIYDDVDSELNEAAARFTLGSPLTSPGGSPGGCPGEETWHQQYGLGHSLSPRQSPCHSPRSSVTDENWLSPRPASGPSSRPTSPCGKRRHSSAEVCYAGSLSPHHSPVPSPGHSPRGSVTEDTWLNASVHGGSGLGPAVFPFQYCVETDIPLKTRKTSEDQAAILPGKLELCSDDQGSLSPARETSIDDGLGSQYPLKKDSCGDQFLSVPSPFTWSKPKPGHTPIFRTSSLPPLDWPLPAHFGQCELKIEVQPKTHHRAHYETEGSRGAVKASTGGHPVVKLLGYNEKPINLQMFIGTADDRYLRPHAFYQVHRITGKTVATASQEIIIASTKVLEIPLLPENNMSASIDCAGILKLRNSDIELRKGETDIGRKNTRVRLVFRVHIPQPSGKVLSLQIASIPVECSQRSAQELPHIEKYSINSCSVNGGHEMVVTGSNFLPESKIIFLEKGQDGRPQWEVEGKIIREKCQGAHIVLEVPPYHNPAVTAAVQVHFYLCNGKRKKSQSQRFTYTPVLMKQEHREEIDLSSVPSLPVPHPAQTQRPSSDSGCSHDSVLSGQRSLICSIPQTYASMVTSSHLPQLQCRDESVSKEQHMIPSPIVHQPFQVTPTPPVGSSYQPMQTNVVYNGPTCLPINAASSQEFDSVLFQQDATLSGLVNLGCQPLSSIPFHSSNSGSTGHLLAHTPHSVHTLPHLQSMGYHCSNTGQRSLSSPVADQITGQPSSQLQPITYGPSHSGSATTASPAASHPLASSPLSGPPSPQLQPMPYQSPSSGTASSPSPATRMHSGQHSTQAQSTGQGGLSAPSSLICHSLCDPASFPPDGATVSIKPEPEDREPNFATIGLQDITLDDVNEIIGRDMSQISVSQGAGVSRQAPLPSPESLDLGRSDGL

Assay [5] has as its target T4, NF-ATc expressed from an expression construct.
T4 sequence (O95644 1-943, species assumed, looked up): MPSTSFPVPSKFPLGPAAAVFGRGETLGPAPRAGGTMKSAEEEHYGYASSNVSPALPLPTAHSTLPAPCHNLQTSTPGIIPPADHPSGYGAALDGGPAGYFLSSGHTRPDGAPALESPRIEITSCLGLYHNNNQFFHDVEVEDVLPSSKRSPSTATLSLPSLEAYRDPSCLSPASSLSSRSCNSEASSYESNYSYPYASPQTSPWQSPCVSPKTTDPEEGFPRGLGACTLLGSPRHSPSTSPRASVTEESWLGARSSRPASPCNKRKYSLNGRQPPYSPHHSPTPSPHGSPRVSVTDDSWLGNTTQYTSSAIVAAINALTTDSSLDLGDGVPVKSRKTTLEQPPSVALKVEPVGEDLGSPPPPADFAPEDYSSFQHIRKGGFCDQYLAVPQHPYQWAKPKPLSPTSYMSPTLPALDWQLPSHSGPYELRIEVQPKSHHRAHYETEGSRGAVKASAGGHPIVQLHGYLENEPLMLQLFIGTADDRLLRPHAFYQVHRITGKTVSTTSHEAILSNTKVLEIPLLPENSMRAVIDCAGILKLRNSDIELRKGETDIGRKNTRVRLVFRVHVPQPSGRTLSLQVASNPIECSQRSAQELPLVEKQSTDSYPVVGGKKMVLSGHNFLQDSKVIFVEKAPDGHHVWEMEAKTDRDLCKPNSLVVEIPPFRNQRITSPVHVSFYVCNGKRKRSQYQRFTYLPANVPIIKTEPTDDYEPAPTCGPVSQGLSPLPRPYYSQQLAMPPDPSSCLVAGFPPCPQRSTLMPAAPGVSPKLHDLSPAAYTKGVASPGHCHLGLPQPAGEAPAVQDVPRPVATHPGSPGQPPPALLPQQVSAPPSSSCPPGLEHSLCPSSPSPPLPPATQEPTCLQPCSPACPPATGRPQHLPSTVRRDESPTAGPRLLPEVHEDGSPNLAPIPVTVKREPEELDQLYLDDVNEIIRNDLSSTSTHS

Turning to “c-Maf expressed from the c-Maf expression vector pMEX-Maf (full-length 4.3 kb c-maf cDNA clone) (from UniProt P54843 1-370)”, in assay [1], the CAT Activity (fold induction), IL-4 CAT reporter in M12 cells, no PMA/iono., Exp. I (fold induction) is 136; the CAT Activity (fold induction), IL-4 CAT reporter in M12 cells, no PMA/iono., Exp. II (fold induction) turned out to be 54; the CAT Activity (fold induction), IL-4 CAT reporter in M12 cells, no PMA/iono., Exp. III (fold induction) came out at 26.3; the CAT Activity (fold induction), IL-4 CAT reporter in M12 cells, with PMA/iono., Exp. I (fold induction) came out at 138. In assay [1], this molecule returned a CAT Activity (fold induction), IL-4 CAT reporter in M12 cells, with PMA/iono., Exp. II (fold induction) of 100 and a CAT Activity (fold induction), IL-4 CAT reporter in M12 cells, with PMA/iono., Exp. III (fold induction) of 54.7.

B1: NIP45 expressed from a NIP45 expression plasmid (protein)
chain: MAEPLRGRGPRSRGGRGARRARGARGRCPRARQSPARLIPDTVLVDLVSDSDEEVLEVADPVEVPVARLPAPAKPEQDSDSDSEGAAEGPAGAPRTLVRRRRRRLLDPGEAPVVPVYSGKVQSSLNLIPDNSSLLKLCPSEPEDEADLTNSGSSPSEDDALPSGSPWRKKLRKKCEKEEKKMEEFPDQDISPLPQPSSRNKSRKHTEALQKLREVNKRLQDLRSCLSPKQHQSPALQSTDDEVVLVEGPVLPQSSRLFTLKIRCRADLVRLPVRMSEPLQNVVDHMANHLGVSPNRILLLFGESELSPTATPSTLKLGVADIIDCVVLASSSEATETSQELRLRVQGKEKHQMLEISLSPDSPLKVLMSHYEEAMGLSGHKLSFFFDGTKLSGKELPADLGLESGDLIEVWG
Consider B1, for which the transactivation of the 3X NF-AT-CAT reporter in HepG2 cells in assay [2] turned out to be 3 fold; in assay [4], 2 fold; in assay [5] it was 4 fold. The CAT activity, 3X NF-AT-CAT reporter in HepG2 cells, relative to NF-ATp alone in assay [3] was 4 to 5 fold. In assay [3], the CAT activity, 3X NF-AT-CAT reporter in HepG2 cells, relative to vector alone lay in the range of 25 to 30 fold.

For the origin of these results see patent US20080038235A1.
